{
  "source": "patent US20040132025A1",
  "about": "“Ampk-related serine/threonine kinase, designated snark” (priority 2001, published 2004)",
  "key": {"SNARK [1]": {"system": "SNARK", "test": "SNARK phosphotransferase activity (SAMS peptide) assayed in the presence of AMP, wildtype and SNARK-transfected BHK cell lysates", "type": "biochemical, hamster", "conditions": "200 μM AMP in assay; wildtype BHK cell lysates", "method": "(§1) FIG. 7. […] SNARK protein was immunoprecipitated from 500 μg of cell lysate from wildtype BHK, BHK−1, BHK+1 and BHK+11 cells. Kinase assays were performed using the 200 μM SAMS peptide as substrate in kinase reaction cocktail. NRKC cells (stippled box); wildtype BHK cells (solid box); BHK+1 and +11 cells (hatched boxes). Results are the means±S.E.M. for 2 experiments (n=5 each time). For comparative purposes, AMPKα2 activity was assayed in these cell lines and found to be equivalent to, 4-fold lower and 1.5-fold lower than the SNARK activity levels measured under basal growth conditions in wildtype BHK, SNARK-transfected BHK and NRKC cell lines, respectively (data not shown).\n(§2) Kinase Assay—Following immunoprecipitation with antiserum, SNARK activity was analysed by performing kinase assays with immunoprecipitated SNARK and a variety of substrates (MBP, B-casein, whole histone fraction, protamine sulphate and a synthetic peptide substrate (HMRSAMSGLHLVKRR, ‘SAMS’ peptide). Kinase assays with the SAMS peptide were performed essentially as described, except that the three washes were done with IP buffer containing 500 mM NaCl followed by a final wash in kinase assay buffer. For kinase assays performed to determine substrate specificity (with substrates other than SAMS peptide), reactions included 30 ug of substrate, 500 nM PKA inhibitor peptide and 1 uM PKC inhibitor peptide. […]"}, "SNARK [2]": {"biological_target": "T1, SNARK (Rattus norvegicus, UniProt Q66HE5)", "T1 sequence (Q66HE5 1-630)": "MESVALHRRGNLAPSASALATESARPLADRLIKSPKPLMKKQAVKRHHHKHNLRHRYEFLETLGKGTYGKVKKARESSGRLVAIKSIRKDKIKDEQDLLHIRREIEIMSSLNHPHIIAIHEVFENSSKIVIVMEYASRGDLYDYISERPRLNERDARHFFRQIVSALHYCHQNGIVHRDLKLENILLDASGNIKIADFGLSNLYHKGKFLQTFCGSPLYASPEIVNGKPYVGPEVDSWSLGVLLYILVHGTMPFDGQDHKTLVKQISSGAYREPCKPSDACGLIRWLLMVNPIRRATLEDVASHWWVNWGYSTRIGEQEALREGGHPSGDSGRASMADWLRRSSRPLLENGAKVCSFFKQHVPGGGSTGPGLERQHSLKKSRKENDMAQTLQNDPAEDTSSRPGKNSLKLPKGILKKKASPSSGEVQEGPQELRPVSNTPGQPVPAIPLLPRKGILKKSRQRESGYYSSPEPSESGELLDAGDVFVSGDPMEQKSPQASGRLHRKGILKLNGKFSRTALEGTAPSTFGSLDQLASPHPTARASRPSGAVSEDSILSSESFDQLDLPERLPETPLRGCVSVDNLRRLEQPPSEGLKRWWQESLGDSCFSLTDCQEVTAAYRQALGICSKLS", "test": "SNARK phosphotransferase activity (SAMS peptide) assayed in the presence of AMP, NRKC cell lysates", "type": "biochemical", "set-up": "In the assays performed with SNARK immunoprecipitated from NRKC cell lysates; endogenous in cells; host or cells: NRKC (neonatal rat keratinocytes)", "conditions": "200 μM AMP in assay; NRKC cells; p<0.001", "method": "as §1, §2"}, "SNARK [3]": {"biological_target": "T1, SNARK", "test": "SNARK phosphotransferase activity (SAMS peptide) assayed in the presence of AMP, wildtype and SNARK-transfected BHK cell lysates", "type": "biochemical, hamster", "set-up": "The complete open reading frame of rat SNARK was subcloned into the pcDNA3.1 vector; expressed in transfected cells", "conditions": "200 μM AMP in assay; SNARK-transfected BHK cell lysates", "method": "as §1, §2"}, "whole histone fraction": {"biological_target": "whole histone fraction", "test": "cell-based or functional assay"}, "[4]": {"biological_target": "dephosphorylated myelin basic protein", "test": "cell-based or functional assay"}, "[5]": {"biological_target": "dephosphorylated B-casein", "test": "cell-based or functional assay"}, "protamine sulfate": {"biological_target": "protamine sulfate", "test": "cell-based or functional assay"}, "SAMS peptide": {"biological_target": "SAMS peptide", "test": "cell-based or functional assay"}, "SNARK [6]": {"biological_target": "T1, SNARK", "test": "Kinase assay of immunoprecipitated SNARK with candidate substrates (substrate specificity)", "type": "biochemical", "set-up": "In the assays performed with SNARK immunoprecipitated from NRKC cell lysates; endogenous in cells; host or cells: NRKC (neonatal rat keratinocytes)", "conditions": "for Activity (phosphotransferase activity of SNARK towards substrate): SNARK immunoprecipitated from 500 ug NRKC cell lysate, SAMS peptide 250 uM or 30 ug of other substrate, 1 μM PKC inhibitor and 500 nM PKA inhibitor peptides, 30 C, means±S.E.M.; for Ability of SNARK to phosphorylate the substrate: SNARK immunoprecipitated from NRKC cell lysates, PKA and PKC peptide inhibitors included", "method": "Kinase Assay—Following immunoprecipitation with antiserum, SNARK activity was analysed by performing kinase assays with immunoprecipitated SNARK and a variety of substrates (MBP, B-casein, whole histone fraction, protamine sulphate and a synthetic peptide substrate (HMRSAMSGLHLVKRR, ‘SAMS’ peptide). Kinase assays with the SAMS peptide were performed essentially as described, except that the three washes were done with IP buffer containing 500 mM NaCl followed by a final wash in kinase assay buffer. For kinase assays performed to determine substrate specificity (with substrates other than SAMS peptide), reactions included 30 ug of substrate, 500 nM PKA inhibitor peptide and 1 uM PKC inhibitor peptide. Activities were calculated as fmol of phosphate incorporated into the SAMS peptide/min per milligram of lysate subjected to immunoprecipitation, minus the activity obtained with a blank reaction (cell lysate and Protein A-Sepharose only).\nPeptide inhibitors of PKA and PKC were included in these reactions to eliminate phosphorylation of these substrates by these enzymes.\nImmunoprecipitation of 500 ug of NRKC cell lysate with SNARK antiserum was performed as described above. Phosphotransferase activity was assayed with either SAMS peptide (250 uM) or 30 ug of dephosphorylated MBP, dephosphorylated β-casein, whole histone fraction or protamine sulfate in the presence of 1 μM PKC inhibitor and 500 nM PKA inhibitor peptides. Phosphortransferase activity is expressed in fmol of phosphate transferred to the SAMS peptide/min at 30 C per mg of protein subjected to immunoprecipitation. Results are means±S.E.M. for two individual assays with at least eight samples per group. *p<0.01 compared with all other substrates."}, "AMPKα1": {"biological_target": "T2, AMPKα1 (Rattus norvegicus, UniProt P54645+P80385)", "T2 construct": "endogenous in cells; host or cells: NRKC (neonatal rat keratinocytes)", "T2 sequence (P54645 whole entry)": "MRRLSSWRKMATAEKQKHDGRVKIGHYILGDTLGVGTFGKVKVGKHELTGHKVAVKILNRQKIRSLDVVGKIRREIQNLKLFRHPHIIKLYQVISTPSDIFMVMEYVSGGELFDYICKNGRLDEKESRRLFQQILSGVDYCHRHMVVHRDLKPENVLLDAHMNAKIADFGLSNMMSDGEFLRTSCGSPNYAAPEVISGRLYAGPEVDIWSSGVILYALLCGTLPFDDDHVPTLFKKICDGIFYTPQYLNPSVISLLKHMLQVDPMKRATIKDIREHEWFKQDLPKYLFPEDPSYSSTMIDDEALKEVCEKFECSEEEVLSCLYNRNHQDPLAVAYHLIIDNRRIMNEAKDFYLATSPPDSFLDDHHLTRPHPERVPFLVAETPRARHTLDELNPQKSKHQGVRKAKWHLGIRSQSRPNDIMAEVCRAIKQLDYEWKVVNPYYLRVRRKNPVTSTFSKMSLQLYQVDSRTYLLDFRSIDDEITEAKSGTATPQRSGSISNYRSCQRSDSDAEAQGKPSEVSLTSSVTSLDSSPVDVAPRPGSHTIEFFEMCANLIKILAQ", "T2 sequence (P80386 whole entry partner)": "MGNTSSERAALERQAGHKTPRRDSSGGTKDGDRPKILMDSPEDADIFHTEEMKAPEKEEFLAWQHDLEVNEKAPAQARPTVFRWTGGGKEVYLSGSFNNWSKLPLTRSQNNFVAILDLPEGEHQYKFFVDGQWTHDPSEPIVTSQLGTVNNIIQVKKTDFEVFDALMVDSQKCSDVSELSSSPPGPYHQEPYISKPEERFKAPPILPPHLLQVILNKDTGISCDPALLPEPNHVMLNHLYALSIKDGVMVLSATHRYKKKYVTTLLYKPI", "T2 sequence (P80385 whole entry)": "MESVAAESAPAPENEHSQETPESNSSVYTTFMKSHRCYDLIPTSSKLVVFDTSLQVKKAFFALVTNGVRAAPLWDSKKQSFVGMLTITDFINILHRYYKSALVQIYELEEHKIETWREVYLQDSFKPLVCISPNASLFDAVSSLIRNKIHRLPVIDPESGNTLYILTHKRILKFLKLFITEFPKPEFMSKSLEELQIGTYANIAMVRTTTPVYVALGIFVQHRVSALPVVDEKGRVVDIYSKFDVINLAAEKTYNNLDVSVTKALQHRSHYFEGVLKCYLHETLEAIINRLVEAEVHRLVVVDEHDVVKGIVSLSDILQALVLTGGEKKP", "test": "AMPKα1 activity in NRKC cells treated with AICAR", "type": "cell-based", "conditions": "treatment with AICAR, data not shown"}, "AMPK-α2": {"biological_target": "T3, AMPK-α2 (Rattus norvegicus, UniProt P80385+Q09137)", "T3 construct": "increased at least 2-fold upon treatment with ImM AICAR in NRKC cells; endogenous in cells; host or cells: NRKC (neonatal rat keratinocytes)", "T3 sequence (Q09137 whole entry)": "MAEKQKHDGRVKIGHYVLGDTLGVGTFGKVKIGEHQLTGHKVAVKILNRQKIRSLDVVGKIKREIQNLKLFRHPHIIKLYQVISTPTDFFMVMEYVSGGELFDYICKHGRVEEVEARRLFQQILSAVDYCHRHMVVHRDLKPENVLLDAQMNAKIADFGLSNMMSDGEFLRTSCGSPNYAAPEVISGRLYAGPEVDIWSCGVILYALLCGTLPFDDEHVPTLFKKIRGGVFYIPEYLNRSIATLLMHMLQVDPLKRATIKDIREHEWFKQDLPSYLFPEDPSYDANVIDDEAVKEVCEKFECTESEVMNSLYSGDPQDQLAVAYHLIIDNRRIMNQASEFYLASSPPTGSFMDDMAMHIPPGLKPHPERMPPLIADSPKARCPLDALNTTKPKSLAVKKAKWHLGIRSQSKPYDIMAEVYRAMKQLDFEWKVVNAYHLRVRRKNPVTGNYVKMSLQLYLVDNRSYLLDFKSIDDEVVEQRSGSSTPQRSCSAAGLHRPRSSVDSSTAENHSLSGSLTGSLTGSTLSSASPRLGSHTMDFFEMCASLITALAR", "T3 sequence (P80386 whole entry partner)": "as the sequence (P80386 whole entry partner) above", "T3 sequence (P80385 whole entry)": "as the sequence (P80385 whole entry) above", "test": "AMPK-α2 activity in NRKC cells treated with AICAR", "type": "cell-based", "conditions": "ImM AICAR, same assay conditions, data not shown"}, "SNARK [7]": {"biological_target": "T1, SNARK", "test": "Activation of SNARK in NRKC cells using AICAR", "type": "cell-based", "set-up": "In the assays performed with SNARK immunoprecipitated from NRKC cell lysates; endogenous in cells; host or cells: NRKC (neonatal rat keratinocytes)", "conditions": "1 mM AICAR for one hour, kinase assay with 200 μM AMP and SAMS peptide, p<0.05", "method": "FIG. 8.(A) Activation of SNARK in NRKC cells using AICAR. NRKC cells were treated with 0, 0.5 mM, 1 mM or 2 mM AICAR for 1 hour. SNARK protein was immunoprecipitated from 500 μg of cell lysates with SNARK antiserum and kinase assays were performed in the presence of 200 μM AMP using the SAMS peptide. Solid box represents control (0 mM AICAR) samples and hatched boxes represent AICAR-treated samples. Data is expressed as phosphotransferase activity relative to control values (control=1) and represents the means±S.E.M. for 2 individual experiments with at least 10 samples per group per experiment. *p<0.06, relative to control values. […] Results are expressed as phosphotransferase activity relative to control values (control=1) and represents the mean±S.E.M. from 2 individual experiments with at least 10 samples per group per experiment. *p<0.03, relative to control values. […]\nThe adenosine analogue, 5-aminoimidizole-4-carboxamide riboside (AICAR), provides a means of stimulating AMPK activity in whole cells, even in the presence of high glucose concentrations, and mimics the effects of AMP on the AMPK cascade. Intriguingly, SNARK activity was induced 2.8-fold (p<0.05) in NRKC cells when treated with 1 mM AICAR for one hour (FIG. 8A, hatched box), as compared to SNARK activity measured in untreated NRKC cells (solid box)."}},
  "note": "Marks after values point to notes of the source that are not given here.",
  "data": [
    {"molecule": "Nc1ncnc2c1ncn2[C@@H]1O[C@H](COP(=O)(O)O)[C@@H](O)[C@H]1O", "note": "[AMP]", "values": [
      {"measurement": "Change in SNARK phosphotransferase activity", "setting": "SNARK [1]", "value": "no significant change"},
      {"measurement": "Increase in SNARK phosphotransferase activity", "setting": "SNARK [2]", "value": 1.7, "unit": "fold"},
      {"measurement": "Change in SNARK phosphotransferase activity", "setting": "SNARK [3]", "value": "no significant change"}
    ]},
    {"molecule": "rat SNARK protein (enzyme)", "values": [
      {"measurement": "Activity (fmol/min per mg); phosphotransferase activity of SNARK immunoprecipitated from NRKC cell lysate (fmol/min per mg)", "setting": "whole histone fraction", "value": 19},
      {"measurement": "Activity (fmol/min per mg); phosphotransferase activity of SNARK immunoprecipitated from NRKC cell lysate (fmol/min per mg)", "setting": "[4]", "value": 91},
      {"measurement": "Activity (fmol/min per mg); phosphotransferase activity of SNARK immunoprecipitated from NRKC cell lysate (fmol/min per mg)", "setting": "[5]", "value": 37},
      {"measurement": "Activity (fmol/min per mg); phosphotransferase activity of SNARK immunoprecipitated from NRKC cell lysate (fmol/min per mg)", "setting": "protamine sulfate", "value": 7},
      {"measurement": "Activity (fmol/min per mg); phosphotransferase activity of SNARK immunoprecipitated from NRKC cell lysate (fmol/min per mg)", "setting": "SAMS peptide", "value": 145}
    ]},
    {"molecule": "Protamine sulfate", "values": [
      {"measurement": "Activity (phosphotransferase activity of SNARK towards substrate)", "setting": "SNARK [6]", "value": "7 ± 2", "unit": "fmol/min per mg"},
      {"measurement": "Ability of SNARK to phosphorylate the substrate", "setting": "SNARK [6]", "value": "minimal"}
    ]},
    {"molecule": "NC(=O)c1ncn([C@@H]2O[C@H](CO)[C@@H](O)[C@H]2O)c1N", "note": "[AICAR, 5-aminoimidizole-4-carboxamide riboside]", "values": [
      {"measurement": "Stimulation of AMPKα1 activity", "setting": "AMPKα1", "value": "not stimulated"},
      {"measurement": "Increase in AMPK-α2 activity over basal", "setting": "AMPK-α2", "value": "at least 2 fold"},
      {"measurement": "Induction of SNARK activity relative to untreated cells", "setting": "SNARK [7]", "value": 2.8, "unit": "fold"}
    ]},
    {"molecule": "HMRSAMSGLHLVKRR [SAMS peptide, synthetic peptide AMPK substrate corresponding to the site in rat acetyl-CoA carboxylase phosphorylated by AMPK]", "values": [
      {"measurement": "Activity (phosphotransferase activity of SNARK towards substrate)", "setting": "SNARK [6]", "value": "145 ± 46* fmol/min per mg"},
      {"measurement": "Ability of SNARK to phosphorylate the substrate", "setting": "SNARK [6]", "value": "able to phosphorylate"}
    ]}
  ]
}
